Source: the RNAGym collection of RNA variant scans (doi:10.1101/gr.219683.116)

B1: mRNA-splicing (parent)
chain: AGUUGCUGCUGGGAGCUCCAGCACAGUGAAAUGGACAGAAGGGCAGAGCAA

Variants of: B1
Test: exon inclusion enrichment index; higher = more inclusion; WT1 exon 5 minigene, HEK293

Variant	exon inclusion enrichment index
AGUUAGGGAUGGGAGCUCCAGCUCAGUGAAAUGGACAGAAGGGCAGAGCAA [G5A C6G U7G C9A A23U]	0.0012
AGUUAGGGAUGGGAGCUCCAGCUAAGUGAAAUGGACAGAAGGGCAGAGCAA [G5A C6G U7G C9A A23U C24A]	0.000776
AGUUAGGGAUGGGAGCUCCAGCUGAGUGAAAUGGACAGAAGGGCAGAGCAA [G5A C6G U7G C9A A23U C24G]	0.000949
AGUUAGGGAUGGGAGCUCCAGCUUAGUGAAAUGGACAGAAGGGCAGAGCAA [G5A C6G U7G C9A A23U C24U]	0.000744
AGUUAGGGAUGGGAGCUCCAGCACCGUGAAAUGGACAGAAGGGCAGAGCAA [G5A C6G U7G C9A A25C]	0.0135
AGUUAGGGAUGGGAGCUCCAGCACCAUGAAAUGGACAGAAGGGCAGAGCAA [G5A C6G U7G C9A A25C G26A]	0.00349
AGUUAGGGAUGGGAGCUCCAGCACCCUGAAAUGGACAGAAGGGCAGAGCAA [G5A C6G U7G C9A A25C G26C]	0.00427
AGUUAGGGAUGGGAGCUCCAGCACCUUGAAAUGGACAGAAGGGCAGAGCAA [G5A C6G U7G C9A A25C G26U]	0.00184
AGUUAGGGAUGGGAGCUCCAGCACGGUGAAAUGGACAGAAGGGCAGAGCAA [G5A C6G U7G C9A A25G]	0.0133
AGUUAGGGAUGGGAGCUCCAGCACGAUGAAAUGGACAGAAGGGCAGAGCAA [G5A C6G U7G C9A A25G G26A]	0.0192
AGUUAGGGAUGGGAGCUCCAGCACGCUGAAAUGGACAGAAGGGCAGAGCAA [G5A C6G U7G C9A A25G G26C]	0.0234
AGUUAGGGAUGGGAGCUCCAGCACGUUGAAAUGGACAGAAGGGCAGAGCAA [G5A C6G U7G C9A A25G G26U]	0.0111
AGUUAGGGAUGGGAGCUCCAGCACUGUGAAAUGGACAGAAGGGCAGAGCAA [G5A C6G U7G C9A A25U]	0.00086
AGUUAGGGAUGGGAGCUCCAGCACUAUGAAAUGGACAGAAGGGCAGAGCAA [G5A C6G U7G C9A A25U G26A]	0.00161
AGUUAGGGAUGGGAGCUCCAGCACUCUGAAAUGGACAGAAGGGCAGAGCAA [G5A C6G U7G C9A A25U G26C]	0.00304
AGUUAGGGAUGGGAGCUCCAGCACUUUGAAAUGGACAGAAGGGCAGAGCAA [G5A C6G U7G C9A A25U G26U]	0.000854
AGUUAGGGAUGGGAGCUCCAGCACAGUGCAAUGGACAGAAGGGCAGAGCAA [G5A C6G U7G C9A A29C]	0.00344
AGUUAGGGAUGGGAGCUCCAGCACAGUGCCAUGGACAGAAGGGCAGAGCAA [G5A C6G U7G C9A A29C A30C]	0.00169
AGUUAGGGAUGGGAGCUCCAGCACAGUGCGAUGGACAGAAGGGCAGAGCAA [G5A C6G U7G C9A A29C A30G]	0.0167
AGUUAGGGAUGGGAGCUCCAGCACAGUGCUAUGGACAGAAGGGCAGAGCAA [G5A C6G U7G C9A A29C A30U]	0.00149
AGUUAGGGAUGGGAGCUCCAGCACAGUGGAAUGGACAGAAGGGCAGAGCAA [G5A C6G U7G C9A A29G]	0.00111
AGUUAGGGAUGGGAGCUCCAGCACAGUGGCAUGGACAGAAGGGCAGAGCAA [G5A C6G U7G C9A A29G A30C]	0.000858
AGUUAGGGAUGGGAGCUCCAGCACAGUGGGAUGGACAGAAGGGCAGAGCAA [G5A C6G U7G C9A A29G A30G]	0.00214
AGUUAGGGAUGGGAGCUCCAGCACAGUGGUAUGGACAGAAGGGCAGAGCAA [G5A C6G U7G C9A A29G A30U]	0.000871
AGUUAGGGAUGGGAGCUCCAGCACAGUGUAAUGGACAGAAGGGCAGAGCAA [G5A C6G U7G C9A A29U]	0.000861
AGUUAGGGAUGGGAGCUCCAGCACAGUGUCAUGGACAGAAGGGCAGAGCAA [G5A C6G U7G C9A A29U A30C]	0.000854

Variant	exon inclusion enrichment index
AGUUAGGGAUGGGAGCUCCAGCACAGUGUGAUGGACAGAAGGGCAGAGCAA [G5A C6G U7G C9A A29U A30G]	0.00279
AGUUAGGGAUGGGAGCUCCAGCACAGUGUUAUGGACAGAAGGGCAGAGCAA [G5A C6G U7G C9A A29U A30U]	0.000968
AGUUAGGGAUGGGAGCUCCAGCACAGUGACAUGGACAGAAGGGCAGAGCAA [G5A C6G U7G C9A A30C]	0.00196
AGUUAGGGAUGGGAGCUCCAGCACAGUGACCUGGACAGAAGGGCAGAGCAA [G5A C6G U7G C9A A30C A31C]	0.00182
AGUUAGGGAUGGGAGCUCCAGCACAGUGACGUGGACAGAAGGGCAGAGCAA [G5A C6G U7G C9A A30C A31G]	0.00621
AGUUAGGGAUGGGAGCUCCAGCACAGUGACUUGGACAGAAGGGCAGAGCAA [G5A C6G U7G C9A A30C A31U]	0.00118
AGUUAGGGAUGGGAGCUCCAGCACAGUGAGAUGGACAGAAGGGCAGAGCAA [G5A C6G U7G C9A A30G]	0.00525
AGUUAGGGAUGGGAGCUCCAGCACAGUGAGCUGGACAGAAGGGCAGAGCAA [G5A C6G U7G C9A A30G A31C]	0.00143
AGUUAGGGAUGGGAGCUCCAGCACAGUGAGGUGGACAGAAGGGCAGAGCAA [G5A C6G U7G C9A A30G A31G]	0.00115
AGUUAGGGAUGGGAGCUCCAGCACAGUGAGUUGGACAGAAGGGCAGAGCAA [G5A C6G U7G C9A A30G A31U]	0.000963
AGUUAGGGAUGGGAGCUCCAGCACAGUGAUAUGGACAGAAGGGCAGAGCAA [G5A C6G U7G C9A A30U]	0.00076
AGUUAGGGAUGGGAGCUCCAGCACAGUGAUCUGGACAGAAGGGCAGAGCAA [G5A C6G U7G C9A A30U A31C]	0.00225
AGUUAGGGAUGGGAGCUCCAGCACAGUGAUGUGGACAGAAGGGCAGAGCAA [G5A C6G U7G C9A A30U A31G]	0.000854
AGUUAGGGAUGGGAGCUCCAGCACAGUGAUUUGGACAGAAGGGCAGAGCAA [G5A C6G U7G C9A A30U A31U]	0.00264
AGUUAGGGAUGGGAGCUCCAGCACAGUGAACUGGACAGAAGGGCAGAGCAA [G5A C6G U7G C9A A31C]	0.00349
AGUUAGGGAUGGGAGCUCCAGCACAGUGAACAGGACAGAAGGGCAGAGCAA [G5A C6G U7G C9A A31C U32A]	0.00457
AGUUAGGGAUGGGAGCUCCAGCACAGUGAACCGGACAGAAGGGCAGAGCAA [G5A C6G U7G C9A A31C U32C]	0.00479
AGUUAGGGAUGGGAGCUCCAGCACAGUGAACGGGACAGAAGGGCAGAGCAA [G5A C6G U7G C9A A31C U32G]	0.00133
AGUUAGGGAUGGGAGCUCCAGCACAGUGAAGUGGACAGAAGGGCAGAGCAA [G5A C6G U7G C9A A31G]	0.00766
AGUUAGGGAUGGGAGCUCCAGCACAGUGAAGAGGACAGAAGGGCAGAGCAA [G5A C6G U7G C9A A31G U32A]	0.0281
AGUUAGGGAUGGGAGCUCCAGCACAGUGAAGCGGACAGAAGGGCAGAGCAA [G5A C6G U7G C9A A31G U32C]	0.00508
AGUUAGGGAUGGGAGCUCCAGCACAGUGAAGGGGACAGAAGGGCAGAGCAA [G5A C6G U7G C9A A31G U32G]	0.0039
AGUUAGGGAUGGGAGCUCCAGCACAGUGAAUUGGACAGAAGGGCAGAGCAA [G5A C6G U7G C9A A31U]	0.00278
AGUUAGGGAUGGGAGCUCCAGCACAGUGAAUAGGACAGAAGGGCAGAGCAA [G5A C6G U7G C9A A31U U32A]	0.000867
AGUUAGGGAUGGGAGCUCCAGCACAGUGAAUCGGACAGAAGGGCAGAGCAA [G5A C6G U7G C9A A31U U32C]	0.00119
